Laboratory results: patent US20170319674A1

Molecular target: NY-ESO-1 αβTCR with murinized domain 3 in β-chain, paired with the human TCRα-chain (human)
Test: cell-based or functional assay

- percentage of lysis (standard chromium release assay): 4 fold
Substance: H57-597 (antibody)
